The results in this text go back to patent publication US20240083948.

The target of series [1] is AKT1 mutant with a deletion in the PH domain, active (UniProt P31749).
Series [2] has as its target AKT1 Ser473Asp mutant, active (UniProt P31749).
Series [3] deals with AKT1 (PKB alpha), active (UniProt P31749).
For series [4], the system named is PKAc, full-length, active (catalytic subunit of Protein Kinase A).
Series [5] deals with T1, adjacent peptide Gly-Phe-Ala-Lys-Arg-Val-Lys-Gly-Arg-Thr-Trp-Thr-Leu.
T1 sequence: GFAKRVKGRTWTL

The subject of series [6] is T2, ZaTa peptide (Ala-Lys-Arg-Val-Lys-Gly-Arg-Thr-Trp-Thr-Leu-Cys-Gly-Thr-Pro-Glu-Tyr).
T2 sequence: AKRVKGRTWTLCGTPEY

Sequence of AKT1 (PKB alpha), active (P31749 whole entry, looked up): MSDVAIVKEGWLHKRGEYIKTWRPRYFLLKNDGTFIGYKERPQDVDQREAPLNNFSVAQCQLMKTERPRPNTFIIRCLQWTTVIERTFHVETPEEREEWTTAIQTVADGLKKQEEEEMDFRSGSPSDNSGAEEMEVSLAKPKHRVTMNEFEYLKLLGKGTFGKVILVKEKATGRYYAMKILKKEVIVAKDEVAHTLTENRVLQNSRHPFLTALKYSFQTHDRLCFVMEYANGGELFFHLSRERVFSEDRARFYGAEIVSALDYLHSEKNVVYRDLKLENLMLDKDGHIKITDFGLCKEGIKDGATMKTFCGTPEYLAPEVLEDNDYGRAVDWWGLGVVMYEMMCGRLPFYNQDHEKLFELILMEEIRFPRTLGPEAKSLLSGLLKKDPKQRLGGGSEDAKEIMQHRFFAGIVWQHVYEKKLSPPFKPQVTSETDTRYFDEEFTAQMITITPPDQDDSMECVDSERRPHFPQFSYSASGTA
Sequence of AKT1 Ser473Asp mutant, active (P31749 whole entry S473D): as the sequence (P31749 whole entry, looked up) above, with S473D counted along it
Sequence of AKT1 mutant with a deletion in the PH domain, active (P31749 whole entry, looked up, stated change not applied, the tested form may be a part): as the sequence (P31749 whole entry, looked up) above

As to “PKAc, full-length, active (catalytic subunit of Protein Kinase A)”, the “AKT kinase assay, catalytic activity of the AKT1 mutant” value in series [1] was “The decrease in the catalytic activity of AKT by PKAc was also observed with two mutants and active forms of AKT1, one with a deletion in the PH domain”; in series [2] it was “The decrease in the catalytic activity of AKT by PKAc was also observed with two mutants and active forms of AKT1 ... the other one with a Ser473Asp mutation”. Also, the “AKT kinase assay, Ser-9 GSK-3 GST fusion protein as substrate” value in series [3] was “the kinetic activity of AKT was dramatically reduced”.
On to active PKAc purified from bovine tissue, for which the “AKT kinase assay, catalytic activity of AKT” value in series [3] is “the same inhibitory effect was observed with active PKAc purified from bovine tissue”.
For AKT1 (PKB alpha), active, in series [4], the “PKA kinase assay, phosphorylation level of DARPP-32 at Thr-34” value is reported as “addition of the active AKT to the PKA kinase assay increased the catalytic activity of PKAc” and the “phosphorylation level of PKAc at Thr-197” value was “the increase in the PKAc catalytic activity was accompanied by an increase in the phosphorylation level of PKAc at Thr-197”. In addition, the “AKT1 in vitro catalytic activity (incorporation of γ-32P into Ser-21 GSK-3β substrate peptide)” value in series [5] is “the adjacent overlapping peptide was not able to inhibit AKT1”. In series [6], the “AKT1 kinase assay, phosphorylation level of Ser-9 GSK-3 GST substrate (western blot)” value was “The phosphorylation level of Ser-9 GSK-3 GST substrate was significantly reduced after adding the ZaTa peptide to the AKT1 kinase assay”; the “control kinase reactions that contained the peptide and AKT only” value is “ZaTa peptide itself was not a substrate for AKT”.
Take human PKAc expressed in Sf9 cells: the “AKT kinase assay, catalytic activity of AKT” value in series [3] is listed as “the same inhibitory effect was observed ... with human PKAc expressed in Sf9 cells”.
